The supplement of paper PMC10567573

B1: BCL2L13 (parent)
chain: QSLDQEILLKVKTEIEEELKSLDK

Variants of: B1
Experiment: protein stability index of a GFP-peptide fusion (GPS, HEK-293T) (PSI 1-6); higher = more stable
Conditions: c terminus: a fixed tail appended
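Also: lentivirally expressed fusions sorted by FACS into six bins by GFP to DsRed ratio, PSI derived from sequencing read proportions per bin multiplied by bin number.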

**Q.** For QSLDQEILLKVKYEIEEELKSLDK [T13Y], which protein stability index is on record?
**A.** 4.14

**Q.** With QSLDQEILLKVKWEIEEELKSLDK [T13W] as the variant, how does the protein stability index read?
**A.** 3.48

**Q.** For QSLDQEILLKVKAEIEEELKSLDK [T13A], which protein stability index is on record?
**A.** 3.97

**Q.** Which protein stability index does the source give for QSLDQEILLKVKHEIEEELKSLDK [T13H] here?
**A.** 4.71

**Q.** Which protein stability index does the source give for QSLDQEILLKVKGEIEEELKSLDK [T13G] here?
**A.** 4.06

**Q.** With QSLDQEILLKVKIEIEEELKSLDK [T13I] as the variant, how does the protein stability index read?
**A.** 2.44

**Q.** For QSLDQELLLKVKTEIEEELKSLDK [I7L], which protein stability index is on record?
**A.** 5.32

**Q.** With QSLDQEFLLKVKTEIEEELKSLDK [I7F] as the variant, how does the protein stability index read?
**A.** 4.64

**Q.** Which protein stability index does the source give for QSLDQEELLKVKTEIEEELKSLDK [I7E] here?
**A.** 5.63

**Q.** Which protein stability index does the source give for QSLDQETLLKVKTEIEEELKSLDK [I7T] here?
**A.** 4.27

**Q.** Which protein stability index does the source give for QSLDQENLLKVKTEIEEELKSLDK [I7N] here?
**A.** 5.33

**Q.** With QSLDQESLLKVKTEIEEELKSLDK [I7S] as the variant, how does the protein stability index read?
**A.** 5.69

**Q.** Which protein stability index does the source give for QSLDQEPLLKVKTEIEEELKSLDK [I7P] here?
**A.** 5.83

**Q.** For QSLDQEYLLKVKTEIEEELKSLDK [I7Y], which protein stability index is on record?
**A.** 5.46

**Q.** With QSLDQEKLLKVKTEIEEELKSLDK [I7K] as the variant, how does the protein stability index read?
**A.** 5.51

**Q.** For QSLDQEALLKVKTEIEEELKSLDK [I7A], which protein stability index is on record?
**A.** 5.66

**Q.** For QSLDQEQLLKVKTEIEEELKSLDK [I7Q], which protein stability index is on record?
**A.** 5.12

**Q.** Which protein stability index does the source give for QSLDQERLLKVKTEIEEELKSLDK [I7R] here?
**A.** 5.61

**Q.** For QSLDQEVLLKVKTEIEEELKSLDK [I7V], which protein stability index is on record?
**A.** 5.62

**Q.** With QSLDQEMLLKVKTEIEEELKSLDK [I7M] as the variant, how does the protein stability index read?
**A.** 5.3

**Q.** For QSLDQEWLLKVKTEIEEELKSLDK [I7W], which protein stability index is on record?
**A.** 2.94

**Q.** For QSLDQEHLLKVKTEIEEELKSLDK [I7H], which protein stability index is on record?
**A.** 5.07

**Q.** For QSLDQEGLLKVKTEIEEELKSLDK [I7G], which protein stability index is on record?
**A.** 5.33

**Q.** Which protein stability index does the source give for QSLDQEDLLKVKTEIEEELKSLDK [I7D] here?
**A.** 5.68

**Q.** Which protein stability index does the source give for QSLDQEILLTVKTEIEEELKSLDK [K10T] here?
**A.** 4.84

**Q.** Which protein stability index does the source give for QSLDQEILLYVKTEIEEELKSLDK [K10Y] here?
**A.** 3.85

**Q.** For QSLDQEILLEVKTEIEEELKSLDK [K10E], which protein stability index is on record?
**A.** 5.2

**Q.** Which protein stability index does the source give for QSLDQEILLMVKTEIEEELKSLDK [K10M] here?
**A.** 3.09

**Q.** Which protein stability index does the source give for QSLDQEILLAVKTEIEEELKSLDK [K10A] here?
**A.** 4.98

**Q.** With QSLDQEILLQVKTEIEEELKSLDK [K10Q] as the variant, how does the protein stability index read?
**A.** 5.35

**Q.** With QSLDQEILLPVKTEIEEELKSLDK [K10P] as the variant, how does the protein stability index read?
**A.** 5.4

**Q.** Which protein stability index does the source give for QSLDQEILLDVKTEIEEELKSLDK [K10D] here?
**A.** 5.67

**Q.** With QSLDQEILLNVKTEIEEELKSLDK [K10N] as the variant, how does the protein stability index read?
**A.** 5.21

**Q.** With QSLDQEILLCVKTEIEEELKSLDK [K10C] as the variant, how does the protein stability index read?
**A.** 4.16

**Q.** Which protein stability index does the source give for QSLDQEILLVVKTEIEEELKSLDK [K10V] here?
**A.** 3.53

**Q.** Which protein stability index does the source give for QSLDQEILLSVKTEIEEELKSLDK [K10S] here?
**A.** 5.01

**Q.** Which protein stability index does the source give for QSLDQEILLRVKTEIEEELKSLDK [K10R] here?
**A.** 3.09

**Q.** With QSLDQEILLWVKTEIEEELKSLDK [K10W] as the variant, how does the protein stability index read?
**A.** 3.15

**Q.** With QSLDQEILLIVKTEIEEELKSLDK [K10I] as the variant, how does the protein stability index read?
**A.** 3.21

**Q.** Which protein stability index does the source give for QSLDQEILLHVKTEIEEELKSLDK [K10H] here?
**A.** 4.66

**Q.** Which protein stability index does the source give for QSLDQEILLFVKTEIEEELKSLDK [K10F] here?
**A.** 3.67

**Q.** Which protein stability index does the source give for QSLDQEILLLVKTEIEEELKSLDK [K10L] here?
**A.** 3.19

**Q.** Which protein stability index does the source give for QSLDQEILLGVKTEIEEELKSLDK [K10G] here?
**A.** 4.83

**Q.** With QSSDQEILLKVKTEIEEELKSLDK [L3S] as the variant, how does the protein stability index read?
**A.** 5.31

**Q.** For QSEDQEILLKVKTEIEEELKSLDK [L3E], which protein stability index is on record?
**A.** 5.63

**Q.** With QSNDQEILLKVKTEIEEELKSLDK [L3N] as the variant, how does the protein stability index read?
**A.** 5.64

**Q.** With QSGDQEILLKVKTEIEEELKSLDK [L3G] as the variant, how does the protein stability index read?
**A.** 5.16

**Q.** Which protein stability index does the source give for QSHDQEILLKVKTEIEEELKSLDK [L3H] here?
**A.** 5.54

**Q.** For QSMDQEILLKVKTEIEEELKSLDK [L3M], which protein stability index is on record?
**A.** 5.47

**Q.** For QSFDQEILLKVKTEIEEELKSLDK [L3F], which protein stability index is on record?
**A.** 4.87

**Q.** For QSTDQEILLKVKTEIEEELKSLDK [L3T], which protein stability index is on record?
**A.** 4.99

**Q.** For QSIDQEILLKVKTEIEEELKSLDK [L3I], which protein stability index is on record?
**A.** 4.72

**Q.** For QSYDQEILLKVKTEIEEELKSLDK [L3Y], which protein stability index is on record?
**A.** 5.07

**Q.** For QSQDQEILLKVKTEIEEELKSLDK [L3Q], which protein stability index is on record?
**A.** 5.41

**Q.** Which protein stability index does the source give for QSWDQEILLKVKTEIEEELKSLDK [L3W] here?
**A.** 4.66

**Q.** Which protein stability index does the source give for QSVDQEILLKVKTEIEEELKSLDK [L3V] here?
**A.** 5.31

**Q.** With QSPDQEILLKVKTEIEEELKSLDK [L3P] as the variant, how does the protein stability index read?
**A.** 4.59

**Q.** Which protein stability index does the source give for QSKDQEILLKVKTEIEEELKSLDK [L3K] here?
**A.** 4.88

**Q.** Which protein stability index does the source give for QSLDQEILLKFKTEIEEELKSLDK [V11F] here?
**A.** 4.83

**Q.** For QSLDQEILLKHKTEIEEELKSLDK [V11H], which protein stability index is on record?
**A.** 4.56

**Q.** Which protein stability index does the source give for QSLDQEILLKMKTEIEEELKSLDK [V11M] here?
**A.** 4.95

**Q.** For QSLDQEILLKQKTEIEEELKSLDK [V11Q], which protein stability index is on record?
**A.** 5.54

**Q.** For QSLDQEILLKWKTEIEEELKSLDK [V11W], which protein stability index is on record?
**A.** 5.5

**Q.** For QSLDQEILLKTKTEIEEELKSLDK [V11T], which protein stability index is on record?
**A.** 5.51

**Q.** With QSLDQEILLKGKTEIEEELKSLDK [V11G] as the variant, how does the protein stability index read?
**A.** 5.36

**Q.** With QSLDQEILLKCKTEIEEELKSLDK [V11C] as the variant, how does the protein stability index read?
**A.** 4.77

**Q.** With QSLDQEILLKLKTEIEEELKSLDK [V11L] as the variant, how does the protein stability index read?
**A.** 3.5

**Q.** Which protein stability index does the source give for QSLDQEILLKEKTEIEEELKSLDK [V11E] here?
**A.** 5.63

**Q.** Which protein stability index does the source give for QSLDQEILLKIKTEIEEELKSLDK [V11I] here?
**A.** 4.19

**Q.** With QSLDQEILLKAKTEIEEELKSLDK [V11A] as the variant, how does the protein stability index read?
**A.** 5.53

**Q.** Which protein stability index does the source give for QSLDQEILLKRKTEIEEELKSLDK [V11R] here?
**A.** 5.33

**Q.** For QSLDQEILLKKKTEIEEELKSLDK [V11K], which protein stability index is on record?
**A.** 5.99

**Q.** For QSLDQEILLKPKTEIEEELKSLDK [V11P], which protein stability index is on record?
**A.** 5.61

**Q.** With QSLDQEILLKVKTFIEEELKSLDK [E14F] as the variant, how does the protein stability index read?
**A.** 3.06

**Q.** Which protein stability index does the source give for QSLDQEILLKVKTCIEEELKSLDK [E14C] here?
**A.** 4.03

**Q.** With QSLDQEILLKVKTAIEEELKSLDK [E14A] as the variant, how does the protein stability index read?
**A.** 3.4

**Q.** With QSLDQEILLKVKTDIEEELKSLDK [E14D] as the variant, how does the protein stability index read?
**A.** 4.7

**Q.** For QSLDQEILIKVKTEIEEELKSLDK [L9I], which protein stability index is on record?
**A.** 4.29

**Q.** For QSLDQEILGKVKTEIEEELKSLDK [L9G], which protein stability index is on record?
**A.** 5.13

**Q.** Which protein stability index does the source give for QSLDQEILNKVKTEIEEELKSLDK [L9N] here?
**A.** 5.48

**Q.** For QSLDQEILYKVKTEIEEELKSLDK [L9Y], which protein stability index is on record?
**A.** 4.45

**Q.** Which protein stability index does the source give for QSLDQEILWKVKTEIEEELKSLDK [L9W] here?
**A.** 4.4

**Q.** With QSLDQEILFKVKTEIEEELKSLDK [L9F] as the variant, how does the protein stability index read?
**A.** 4.66

**Q.** With QSLDQEILCKVKTEIEEELKSLDK [L9C] as the variant, how does the protein stability index read?
**A.** 5

**Q.** For QSLDQEILQKVKTEIEEELKSLDK [L9Q], which protein stability index is on record?
**A.** 5.37

**Q.** For QSLDQEILEKVKTEIEEELKSLDK [L9E], which protein stability index is on record?
**A.** 5.45

**Q.** Which protein stability index does the source give for QSLDQEILMKVKTEIEEELKSLDK [L9M] here?
**A.** 4.49

**Q.** Which protein stability index does the source give for QSLDQEILTKVKTEIEEELKSLDK [L9T] here?
**A.** 5.25

**Q.** With QSLDQEILHKVKTEIEEELKSLDK [L9H] as the variant, how does the protein stability index read?
**A.** 5.39

**Q.** With QSLDQEILRKVKTEIEEELKSLDK [L9R] as the variant, how does the protein stability index read?
**A.** 5.05

**Q.** With QSLDQEILPKVKTEIEEELKSLDK [L9P] as the variant, how does the protein stability index read?
**A.** 4.87

**Q.** For QSLDQEILVKVKTEIEEELKSLDK [L9V], which protein stability index is on record?
**A.** 5.26

**Q.** Which protein stability index does the source give for QSLDQEILKKVKTEIEEELKSLDK [L9K] here?
**A.** 4.81

**Q.** With QSLDQEILSKVKTEIEEELKSLDK [L9S] as the variant, how does the protein stability index read?
**A.** 5.21
